Target: T1, ヒトCD38 (SPRで注入されたCD38) (human, UniProt P28907 43-300)
T1 sequence: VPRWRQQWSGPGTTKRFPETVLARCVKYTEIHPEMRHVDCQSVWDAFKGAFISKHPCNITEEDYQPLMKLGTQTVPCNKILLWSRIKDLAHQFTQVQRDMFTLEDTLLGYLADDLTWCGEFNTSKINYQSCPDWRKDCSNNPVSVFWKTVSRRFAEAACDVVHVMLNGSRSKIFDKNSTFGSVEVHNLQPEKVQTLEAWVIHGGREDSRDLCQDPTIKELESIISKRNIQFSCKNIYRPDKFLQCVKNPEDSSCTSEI
Assay: SPR (Biacore), antibody captured on protein A, CD38 injected

Kd: 0.378 to 27 nM
B1: X02.1 (antibody, human IgG4 S228P, lambda, V domains shown)
VH: QLQLQESGPGLVKPSETLSLTCTVSGGSISSSSYYWSWIRQHPGKGLEWIGYIYYSGSTNYNPSLKSRVTISVDTLKNQISLRLTSVTAADTAVYYCARVGGAGGWPMDVWGQGTTVTVSS
VL: QAVLTQPASLSASPGESARLTCTLPSDINVRYYNIYWYQQKPGSPPRYLLYYYSDSHKGQGSGVPSRFSGSKDVSTNSGILLISGLQSEDEADYYCMTWSSNGSGVFGGGTQLTVLG
notes: X02.1 has no IFN fusion; also called 親抗体X02.1; A02.1 (X355/02-HC-L0-IFN-アルファ(A145D)IgG4) の非融合抗体
